Source: paper PMC2646141

Target: untagged wild type APOBEC3G (A3G) (human), Q9HC16
Test: cross-linking; cleared lysate of transfected 293T cells treated with BM(PEO)3 (cysteine-reactive, 18 Å linker), 20°C, 1 h, quenched with DTT; SDS-PAGE and immunoblot for A3G; ~80 kD species; no RNase A, or RNase A after the crosslinking
Conditions: remark: other sources report otherwise

- stoichiometry N: 2
B1: untagged wild type APOBEC3G (A3G), Q9HC16 1-384 (natural protein)
chain: MKPHFRNTVERMYRDTFSYNFYNRPILSRRNTVWLCYEVKTKGPSRPPLDAKIFRGQVYSELKYHPEMRFFHWFSKWRKLHRDQEYEVTWYISWSPCTKCTRDMATFLAEDPKVTLTIFVARLYYFWDPDYQEALRSLCQKRDGPRATMKIMNYDEFQHCWSKFVYSQRELFEPWNNLPKYYILLHIMLGEILRHSMDPPTFTFNFNNEPWVRGRHETYLCYEVERMHNDTWVLLNQRRGFLCNQAPHKHGFLEGRHAELCFLDVIPFWKLDLDQDYRVTCFTSWSPCFSCAQEMAKFISKNKHVSLCIFTARIYDDQGRCQEGLRTLAEAGAKISIMTYSEFKHCWDTFVDHQGCPFQPWDGLDEHSQDLSGRLRAILQNQEN
